Test results taken from PMC11257959.

Tested on: NG-RYBP (Homo sapiens)
Experiment: EMSA
Settings: n=3; almost fourfold; EMSA: 25 mM Tris-HCl pH 7.5, 50 mM NaCl, 0.05% Tween 20, 5 mM MgCl2, 4% glycerol, 0.2 nM nucleosome, 10 min on ice, 1% agarose 0.4x TBE; cryo-EM binding: 50 mM …

Nuc (EMSA, 201 bp 601)
binding signal (fold lower affinity than NucH2Aub1): 4
